By stoichiometry N is commonly meant the number of molecules, sites or subunits per partner or assembly.

The text below walks through data of PMC12749422.

Assay [1] has as its target A/Singapore/INFIMH/16 (Sing/16) H3 hemagglutinin, recombinant HA-GCN4-2x sfGFP, treated with endo H (influenza A virus A/Singapore/INFIMH/16 (H3N2)). Description: cryo-EM structure.
For assay [2], the target named is A/Singapore/INFIMH/16 (Sing/16) H3 hemagglutinin, recombinant HA-GCN4-2x sfGFP, glycosylated (influenza A virus A/Singapore/INFIMH/16 (H3N2)). Description: cryo-EM structure.

As to “A/Singapore/INFIMH/16 (Sing/16) H3 hemagglutinin, recombinant HA-GCN4-2x sfGFP, treated with endo H (natural protein)”, the stoichiometry N in assay [1] stood at 3.
Turning to “A/Singapore/INFIMH/16 (Sing/16) H3 hemagglutinin, recombinant HA-GCN4-2x sfGFP, glycosylated (natural protein)”, the stoichiometry N in assay [2] worked out at 3.
